Results published in patent US6881824B1, “Peptides suitable for use in antigen specific immunosuppressive therapy” (Akzo Nobel N.V., priority 1996, dated 2005).

B1: HC gp-39 peptide 15 (residues 106-121) (peptide)
peptide: FSKIASNTQSRRTFIK
notes: This is probably a misprint
B2: HC gp-39 peptide 57 (residues 358-373) (peptide)
peptide: DFQGSFCGQDLRFPLT
B3: HC gp-39 peptide 6 (residues 52-67) (peptide)
peptide: THIIYSFANISNDHID
B4: HC gp-39 peptide 4 (residues 40-55) (peptide)
peptide: SCFPDALDRFLCTHII
B5: HC gp-39 peptide 5 (residues 46-61) (peptide)
peptide: LDRFLCTHIIYSFANI

What was measured:
[1] = test system: Balb/c mouse; assay: HC gp-39 administration in Balb/c mice (arthritis); type: in vivo; settings: administration of HC gp-39
[2] = target: T1, DR4 (DRB1*0401) molecules purified from the homozygous EBV-transformed human B lymphoblastoid cell line … (human, UniProt P01903 26-254)
[3] = target: T1, DR4 (DRB1*0401) molecules purified from …; assay: competition binding assay on purified DR4(DRB1*0401)

| Molecule | Arthritic development [1] | Immunological tolerance [1] | IC50 [2] [nM] | binding result [3] |
| --- | --- | --- | --- | --- |
| Human Cartilage glycoprotein 39 [HC gp-39] | delayed and/or suppressed arthritic development | resulted in immunological tolerance |  |  |
| B1 |  |  | < 1000 | binds |
| B2 |  |  | 1000 to 10000 | binds |
| B3 |  |  | < 1000 | binds |
| B4 |  |  | 10000 to 100000 | binds |
| B5 |  |  | < 1000 | binds |
